Measured values reported in patent US8530235B2, “Medium that supports culture of an oocyte and modulation of granulosa cell apoptosis” (Adelaide Research & Innovation Pty Ltd., priority 2005, dated 2013).

B1: GDF-9: Recombinant mouse GDF-9 produced in-house in transfected 293H cells, partially purified by HIC (protein, UniProt Q07105 307-441, looked up)
Growth/differentiation factor …: GQKAIRSEAKGPLLTASFNLSEYFKQFLFPQNECELHDFRLSFSQLKWDNWIVAPHRYNPRYCKGDCPRAVRHRYGSPVHTMVQNIIYEKLDPSVPRPSCVPGKYSPLSVLTIEPDGSIAYKEYEDMIATRCTCR
B2: BMP-15: Recombinant ovine BMP-15 produced in-house in transfected 293H cells, partially purified by hydrophobic interaction chromatography; dosed as % v/v (protein, UniProt Q9MZE2 269-393, looked up)
Bone morphogenetic protein 15: QAGSIASEVPGPSREHDGPESNQCSLHPFQVSFQQLGWDHWIIAPHLYTPNYCKGVCPRVLHYGLNSPNHAIIQNLVSELVDQNVPQPSCVPYKYVPISILLIEANGSILYKEYEGMIAQSCTCR

Key:
[1] = tested on: Bcl-2 and Bax proteins; assay: Western blot of Bcl-2 and Bax expression in OOX cumulus cells; assay type: cell-based, Bovine; conditions: OOX 24 h; for ratio of Bcl-2 to Bax: 132 ng/ml GDF-9, 10% v/v BMP-15 or 35 DO/well
Method: Following culture treatments, OOX complexes were lysed in […] RIPA lysis buffer (10 mM Tris [pH 7.4], 150 mM NaCl, 1 mM EDTA, 1% Trinton X-100 and stored at −80° C., for detection of apoptotic proteins using the sensitive Enhanced Chemiluminescence (ECl) Advance system (Amersham Biosciences, Ontario, Canada). Thawed lysates were mixed with 4× loading buffer containing 100 mM Dithiothretol (DTT) and subjected to SDS-PAGE (12% polyacrylamide gel). Proteins were subsequently electrotransferred to nitrocellulose membranes (Hybond-ECl, Amersham life Science, Ontario, Canada.) in 25 mM Tris-192 mM glycine containing 20% methanol. Blots were blocked in 20 mM Tris (pH 7.6) containing 13.7 mM NaCl, 1% Tween-20, and 2% blocking agent (provided in ECl Advance Kit) for 1 hr at RT, then incubated overnight with Bcl-2 or Bax rabbit polyclonal antibodies (0.35 μg/ml; Santa Cruz Biotechnology, Calif., USA) at 4° C., followed by incubation with horseradish peroxidase-conjugated anti-rabbit antibody (1:200 000; Silemus laboratories, Melbourne, Australia). Images were then scanned using a flat bed scanner and the intensity of Bcl-2 and Bax bands in each sample was quantitated by the ImageJ Imaging System Software version 1.3 (National Institutes of Health, USA).
This experiment was conducted to confirm that treatment effects on CC apoptosis, as assessed by TUNEL, are concomitant with changes in expression of key proteins regulating cell death and survival. OOX were cultured for 24 h untreated, or treated with 132 ng/ml GDF-9, 10% v/V BMP-15, co-cultured with 35 DO/well, or 10% 293H (control conditioned medium), and then subjected to Western blot for analysis of Bcl-2 and Bax expression.

[2] = tested on: cumulus-oocyte complexes; assay: Study II: oocyte developmental competence after IVM, IVF and embryo culture (cleavage, blastocyst); assay type: cell-based, Bovine
Method: Bovine ovaries were collected from local abattoirs and transported to the laboratory in warm saline (30-35° C.). Cumulus-oocyte complexes (COC) were aspirated from antral follicles (2 to 8 mm diameter) using an 18-gauge needle and a 10-ml syringe containing ˜2 ml aspiration media (Hepes-buffered Tissue Cultured Medium-199; TCM-199, ICN Biochemicals, Irvine, Calif., USA) supplemented with 50 μg/ml kanamycin, 0.5 mM sodium pyruvate, 50 μg/ml heparin and 4 mg/ml fatty acid-free bovine serum albumin (FAF-BSA; ICPbio Ltd, Aukland, NZ). Intact COC with compact cumulus vestments greater than five cell layers and evenly pigmented cytoplasm were selected under a dissecting microscope and washed twice in Hepes-buffered TCM-199 and once in Hepes-TCM199 supplemented with 10% fetal calf serum (FCS) (Invitrogen, Carlsbad, Calif.). Base media for oocyte maturation was Bovine VitroMat (Cook Australia, Eight Mile Plain, Qld, Australia), and is a medium based on the ionic composition of bovine follicular fluid and also containing 100 μm glycylglutamine (Glutamax; Gibco Invitrogen, Carlsbad, Calif., USA), 100 μm N-acetyl-1-cysteine, 100 μm 2-mercaptoethylamine, 1% v/v non-essential amino acids (100×; Gibco Invitrogen), 2% v/v essential amino acids (50×; Gibco Invitrogen), 4 mg mL-1 fatty acid-free BSA and 5.6 mm glucose. […] (Puregon, Organon, Oss, Netherlands). Complexes were cultured pre-equilibrated […] drops overlaid with mineral oil and incubated at 39° C. with 5% CO2 in humidified air for 24 hour. […]
Recombinant mouse GDF-9 and recombinant ovine BMP-15 were produced in-house as previously described (Kaivo-Oja et al. (2003) J. Clin. Endocrinol Metab 88:755-762; McNatty et al. (2005) Reproduction 129:473-480) using transfected 293 human embryonic kidney cell lines (293H). Recombinant proteins were partially purified using hydrophobic interaction chromatography (HIC), as recently described (Hickey et al., (2005) Biol Reprod on line), and their concentrations were then estimated by Western blot (Kaivo-Oja et al., 2003 3) J. Clin. Endocrinol Metab 88:755-762). Control conditioned medium (293H) was also produced from untransfected 293H cells and purified by HIC.
All experiments were carried out using frozen semen from the same bull of proven fertility. Briefly, one straw of semen stored in liquid nitrogen was rapidly thawed in a water bath for one minute. The semen sample was layered on top of a discontinuous (45%:90%) Percoll gradient (Amersham Bioscience) and centrifuged at room temperature for 20-25 mins at 700 g. The supernatant was removed and the sperm pellet was washed with […] Bovine Vitro Wash (Cook Australia, Eight Mile Plains, Qld, Australia) and centrifuged for a further 5 minutes at 200 g. spermatozoa were resuspended with TVF medium (Bovine Vitro Fert, Cook Australia), then added to the fertilization media drops (Bovine Vitro Fert, Cook Australia, supplemented with 0.01 mM heparin, 0.2 mM penicillamine and […] hypotaurine) at a final concentration of 1×10^6 spermatozoa/ml. COCs were inseminated at a media density of […] of IVF medium per COCs for 24 h, at 39° C. in 6% CO2 in humidified air.
Cumulus cells were removed by gentle pipetting 23-24 h post insemination and five presumptive zygotes were transferred into 20 μl drops of pre-equilibrated Cook Bovine Cleave medium (modified SOFaa, Cook Australia) and cultured under mineral oil at 38.5° C. in 7% O2, 6% CO2, balance N2, for five days (day 1 to day 5).
On Day 5, embryos were transferred in groups of […] drops of pre-equilibrated Bovine Vitro Blast (Cook Bovine Blast medium; Cook Australia) at 38.5° C. overlaid with mineral oil and cultured to Day 8. Embryos were assessed for quality at Day 8 according to the definitions presented in the Manual of the International Embryo Transfer Society and were performed independently and blinded by an experienced bovine embryologist. […]

[3] = 1st REP, COC IVM 24 h, 175 ng/ml GDF-9, 10% BMP-15, 10% 293H

Molecule | ratio of Bcl-2 to Bax [1] | BLACTOCYST RATE [2, 3] [%] | CLEAVAGE RATE [2, 3] [%] | BLACTOCYST RATE ([2]; 2nd REP) [%] | CLEAVAGE RATE ([2]; 2nd REP) [%] | BLACTOCYST RATE ([2]; 3rd REP) [%] | CLEAVAGE RATE ([2]; 3rd REP) [%] | BLACTOCYST RATE ([2]; 4th REP) [%] | CLEAVAGE RATE ([2]; 4th REP) [%] | BLACTOCYST RATE ([2]; AVERAGE, control COC 41.5%) [%] | CLEAVAGE RATE ([2]; AVERAGE, control COC 84%) [%] | expression of Bax protein in CC ([1]; 10% v/v BMP-15 or 35 DO/well) | expression of Bcl-2 protein in CC ([1]; 10% v/v BMP-15 or 35 DO/well, compared to untreated or GDF-9) | number of oocytes that reached the blastocyst stage post insemination ([2]; alone or in combination with GDF9, compared with GDF-9 alone or no supplement)
B1 | no effect | 50 | 88 | 58 | 92 | 35 | 84 | 36 | 83 | 45 | 87 | – | – | –
B2 | alter the ratio of Bcl-2 to Bax in favour of cell survival | 58 | 76 | 63 | 90 | 50 | 80 | 50 | 85 | 55 | 83 | barely detectable | significantly (P<0.001) higher | more effective
